Results: patent US20120094914A1 (KYUSHU UNIVERSITY NATIONAL UNIVERSITY, published 2012)

Biological target: T1, biotinylated HLA-G (monomer) refolded with human beta2 microglobulin and peptide … (human, biotinylated with BirA; site not stated)
T1 construct: also called wild-type HLA-G
Assay: SPR (BIAcore 2000), equilibrium response against LIR2 concentration, fitted binding isotherm; biotinylated HLA-G immobilised via streptavidin, BSA control cell subtracted
Procedure: Surface plasmon resonance experiment was conducted for HLA-G and LILRB2 (LIR2), using BIAcore 2000° (BIAcore AB, St Albans, England). First, streptavidin was covalently immobilized on a laboratory sensor chip CM5 (BIAcore AB), and the biotinylated HLA-G and the negative control BSA were immobilized via the streptavidin. Then, LILRB2 (LIR2) dissolved in the running buffer HBS-EP (10 mM HEPES, pH 7.5, 150 mM sodium chloride, 3.4 mM EDTA, 0.005% Surfactant P20) was flown at 10 μL/min. The binding response at each concentration was calculated by subtracting the measured response in a control flow cell from the response in a sample flow cell. Binding constant (Kd) was obtained by Scatchard analysis, or by the nonlinear curve fitting of standard Langmuir binding isotherm, using ORIGIN 5 (Microcal Software).

B1: LILRB2 (LIR2) (receptor, UniProt Q8N423 24-220, looked up)
chain: GTIPKPTLWAEPDSVITQGSPVTLSCQGSLEAQEYRLYREKKSASWITRIRPELVKNGQFHIPSITWEHTGRYGCQYYSRARWSELSDPLVLVMTGAYPKPTLSAQPSPVVTSGGRVTLQCESQVAFGGFILCKEGEDEHPQCLNSQPHARGSSRAIFSVGPVSPNRRWSHRCYGYDLNSPYVWSSPSDLLELLVPG
notes: domain: ILT4D1D2; also called leukocyte Ig-like receptor B2; ILT4
- Kd: 4.1 µM
